# Experimental data reported in publication PMC7498065 (PLoS Biology, 2020).
# How the values were obtained:
# Conditions in all cases: both partners purified
# [1] = target: T1, Complement component C5 (Homo sapiens, UniProt P01031); assay: SPR; Biacore 8K single-cycle kinetics; C5 amine-coupled to CM5 (minimal immobilisation, 100-160 RU; 50-85 RU for PGT121-K149); PGT121 knob fusion proteins as analytes, 1 μM to 1.37 nM in HBS-EP; 40 μL/min (100 μL/min for K149); dissociation 10,000 s; 1:1 model; mean of 3 experiments
# T1 construct: Complement component C5, human, beta chain of the processed serum protein; Complement component C5, human, alpha chain of the processed serum protein; In the FRET assays C5 carried an amine-reactive terbium chelate (dye to protein 4:1); in SPR it was amine-coupled to a CM5 chip; The C5 used for immunisation was bought from CompTech; also called human C5; C5-Tb
# T1 sequence (P01031 whole entry, looked up, the tested form may be a part): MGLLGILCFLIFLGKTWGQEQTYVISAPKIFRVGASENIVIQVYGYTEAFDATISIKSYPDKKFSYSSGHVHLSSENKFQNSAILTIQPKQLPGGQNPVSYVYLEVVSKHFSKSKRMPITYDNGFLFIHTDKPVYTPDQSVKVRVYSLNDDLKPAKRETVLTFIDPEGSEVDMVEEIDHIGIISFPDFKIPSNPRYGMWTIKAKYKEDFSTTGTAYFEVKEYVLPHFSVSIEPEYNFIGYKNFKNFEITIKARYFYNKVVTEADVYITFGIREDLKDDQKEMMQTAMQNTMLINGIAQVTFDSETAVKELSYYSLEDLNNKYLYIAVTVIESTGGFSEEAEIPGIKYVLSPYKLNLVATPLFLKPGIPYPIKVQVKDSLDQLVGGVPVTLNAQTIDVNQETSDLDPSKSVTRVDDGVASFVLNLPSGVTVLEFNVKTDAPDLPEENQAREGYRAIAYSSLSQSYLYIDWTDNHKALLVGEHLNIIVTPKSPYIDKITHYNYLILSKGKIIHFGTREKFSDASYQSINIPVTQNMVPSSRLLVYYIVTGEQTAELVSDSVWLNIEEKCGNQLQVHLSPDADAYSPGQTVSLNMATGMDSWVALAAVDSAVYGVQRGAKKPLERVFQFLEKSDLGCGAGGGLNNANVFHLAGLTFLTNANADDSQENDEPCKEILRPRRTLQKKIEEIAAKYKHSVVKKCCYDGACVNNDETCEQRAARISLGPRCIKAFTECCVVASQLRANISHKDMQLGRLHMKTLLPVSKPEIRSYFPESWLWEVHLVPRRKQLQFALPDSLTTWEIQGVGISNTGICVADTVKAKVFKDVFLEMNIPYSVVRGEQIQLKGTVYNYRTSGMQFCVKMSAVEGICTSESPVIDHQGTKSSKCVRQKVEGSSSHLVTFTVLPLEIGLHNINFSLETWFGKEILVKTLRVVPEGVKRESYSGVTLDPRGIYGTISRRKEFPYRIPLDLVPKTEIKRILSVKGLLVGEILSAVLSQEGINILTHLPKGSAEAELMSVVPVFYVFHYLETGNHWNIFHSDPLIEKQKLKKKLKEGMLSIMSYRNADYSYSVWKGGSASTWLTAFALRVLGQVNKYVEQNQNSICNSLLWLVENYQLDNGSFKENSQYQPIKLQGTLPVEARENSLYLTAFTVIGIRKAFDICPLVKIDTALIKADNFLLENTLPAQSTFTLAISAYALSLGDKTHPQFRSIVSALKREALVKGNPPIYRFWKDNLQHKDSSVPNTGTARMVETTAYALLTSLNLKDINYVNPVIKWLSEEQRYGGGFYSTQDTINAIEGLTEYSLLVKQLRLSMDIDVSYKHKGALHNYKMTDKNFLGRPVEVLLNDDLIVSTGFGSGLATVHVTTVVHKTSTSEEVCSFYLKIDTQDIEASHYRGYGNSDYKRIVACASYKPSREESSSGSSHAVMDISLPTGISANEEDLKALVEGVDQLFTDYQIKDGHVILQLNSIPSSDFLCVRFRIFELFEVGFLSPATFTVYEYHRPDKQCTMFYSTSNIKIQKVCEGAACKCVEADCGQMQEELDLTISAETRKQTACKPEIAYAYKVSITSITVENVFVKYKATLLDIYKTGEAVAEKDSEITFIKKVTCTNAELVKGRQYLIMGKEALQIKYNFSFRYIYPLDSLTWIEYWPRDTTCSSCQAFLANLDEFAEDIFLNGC
# [2] = target: T1, Complement component C5; assay: FRET or BRET; steady state FRET; 1 nM terbium-labelled C5; titration of AlexaFluor 647-labelled PGT121 knob fusion protein in HBS-EP, with and without 1 μM unlabelled C5; 24 hours; apparent KD (KD app), geomean of 3 experiments
# [3] = target: T2, human complement component C3 (Homo sapiens, UniProt P01024); assay: SPR; Biacore single-cycle kinetics counter screen; C3 amine-coupled to CM5 (minimal immobilisation, 40-55 RU); PGT121 knob fusion proteins as analytes
# T2 construct: Complement component C3, human, beta chain of the processed serum protein; Complement component C3, human, alpha chain of the processed serum protein; source: bought: CompTech
# T2 sequence (P01024 whole entry, looked up, the tested form may be a part): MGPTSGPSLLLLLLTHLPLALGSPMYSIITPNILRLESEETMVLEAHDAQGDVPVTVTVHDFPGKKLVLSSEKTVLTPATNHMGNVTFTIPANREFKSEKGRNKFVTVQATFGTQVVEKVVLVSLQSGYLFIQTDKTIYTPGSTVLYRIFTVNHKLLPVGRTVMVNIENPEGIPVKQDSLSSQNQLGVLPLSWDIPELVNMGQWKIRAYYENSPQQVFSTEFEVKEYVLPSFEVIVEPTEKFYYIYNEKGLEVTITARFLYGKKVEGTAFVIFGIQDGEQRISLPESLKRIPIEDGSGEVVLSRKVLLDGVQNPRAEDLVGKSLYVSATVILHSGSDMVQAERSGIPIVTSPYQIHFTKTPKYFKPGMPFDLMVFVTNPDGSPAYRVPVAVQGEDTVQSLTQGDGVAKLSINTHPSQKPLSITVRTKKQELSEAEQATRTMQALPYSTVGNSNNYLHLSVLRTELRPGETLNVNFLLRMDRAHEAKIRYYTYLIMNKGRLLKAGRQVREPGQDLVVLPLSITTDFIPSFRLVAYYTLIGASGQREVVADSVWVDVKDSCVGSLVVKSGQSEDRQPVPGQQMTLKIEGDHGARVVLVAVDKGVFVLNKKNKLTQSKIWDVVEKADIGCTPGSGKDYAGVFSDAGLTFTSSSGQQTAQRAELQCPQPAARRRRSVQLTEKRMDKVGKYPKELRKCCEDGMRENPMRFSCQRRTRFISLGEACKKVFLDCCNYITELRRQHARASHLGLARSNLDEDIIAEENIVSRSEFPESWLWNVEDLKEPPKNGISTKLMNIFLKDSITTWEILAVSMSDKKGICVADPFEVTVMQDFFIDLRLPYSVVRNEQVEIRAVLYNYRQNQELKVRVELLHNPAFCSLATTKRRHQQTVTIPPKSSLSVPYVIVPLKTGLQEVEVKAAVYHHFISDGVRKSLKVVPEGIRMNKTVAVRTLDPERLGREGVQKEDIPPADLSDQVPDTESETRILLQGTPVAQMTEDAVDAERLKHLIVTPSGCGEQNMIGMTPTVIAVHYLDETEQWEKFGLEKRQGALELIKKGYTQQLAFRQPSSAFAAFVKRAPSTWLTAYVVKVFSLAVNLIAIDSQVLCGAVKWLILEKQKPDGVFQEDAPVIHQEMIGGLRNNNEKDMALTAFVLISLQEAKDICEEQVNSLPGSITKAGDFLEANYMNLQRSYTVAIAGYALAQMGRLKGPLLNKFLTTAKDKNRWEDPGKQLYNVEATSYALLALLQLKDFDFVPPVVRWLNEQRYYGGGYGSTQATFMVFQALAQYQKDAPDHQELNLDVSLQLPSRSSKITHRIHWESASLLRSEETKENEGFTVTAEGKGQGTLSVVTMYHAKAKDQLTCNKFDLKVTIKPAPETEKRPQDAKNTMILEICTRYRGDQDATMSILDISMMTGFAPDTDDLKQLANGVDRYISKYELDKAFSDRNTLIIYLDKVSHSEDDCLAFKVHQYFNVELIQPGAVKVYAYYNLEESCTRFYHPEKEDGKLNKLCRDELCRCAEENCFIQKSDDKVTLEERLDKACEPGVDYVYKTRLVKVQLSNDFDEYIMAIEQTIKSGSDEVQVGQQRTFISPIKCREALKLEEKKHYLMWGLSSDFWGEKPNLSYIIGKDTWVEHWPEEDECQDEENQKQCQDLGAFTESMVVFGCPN
Binder,koff [1] [s⁻¹],Kd [2] [nM],binding result [3]
"PGT121-K136 fusion protein (Fab, light chain of the human Fab PGT121, as the light chain of m4; Purified on a nickel column, so a His tag is surmised; also called PGT121 Fab-knob domain fusion protein (K136); source: Expi293F, transient co-transfection of heavy and light chain, purified from supernatant (Hi-Trap Nickel excel)) VH: QMQLQESGPGLVKPSETLSLTCSVSGASISDSYWSWIRRSPGKGLEWIGYVHKSGDTNYSPSLKSRVNLSLDTSKNQVSLSLVAATAADSGKYYCARTLHGRRIYGSENLYFQGTCPDNYREVDGCDPYDCCLTTWCTNSYCTRYIENLYFQGSEWFTYFYMDVWGNGTQVTVSS VL: QSVLTQPPDISVAPGETARISCGEKSLGSRAVQWYQHRAGQAPSLIIYNNQDRPSGIPERFSGSPDSPFGTTATLTITSVEAGDEADYYCHIWDSRVPTKWVFGGGTTLTVL",< 1e-05,40,no binding (tested: 1 μM)
"PGT121-K149 fusion protein (Fab, light chain of the human Fab PGT121, as the light chain of m4; Purified on a nickel column, so a His tag is surmised; also called K149-PGT121 construct; source: Expi293F, transient co-transfection of heavy and light chain, purified from supernatant (Hi-Trap Nickel excel)) VH: QMQLQESGPGLVKPSETLSLTCSVSGASISDSYWSWIRRSPGKGLEWIGYVHKSGDTNYSPSLKSRVNLSLDTSKNQVSLSLVAATAADSGKYYCARTLHGRRIYGSENLYFQGSCPDGFSYRSWDDFCCPMVGRCLAPRNGSENLYFQGSEWFTYFYMDVWGNGTQVTVSS VL: QSVLTQPPDISVAPGETARISCGEKSLGSRAVQWYQHRAGQAPSLIIYNNQDRPSGIPERFSGSPDSPFGTTATLTITSVEAGDEADYYCHIWDSRVPTKWVFGGGTTLTVL",–,66,no binding (tested: 1 μM)
